This is an account of results in the nanobody polyreactivity screen of Harvey et al. (2022).

A short description of the data set: yeast display, Sf9 membrane polyspecificity reagent, FACS + sequencing; frameworks hold sequencing errors. Summed up:
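Sorting gates, low and high (top ~1%), were placed on anti-HA fluorescence to track expression and on streptavidin fluorescence to track reagent binding. A clone's polyreactivity label is taken from the gate it came out of. The reagent was 10% biotinylated, detergent-solubilized Sf9 membrane, applied for 1 hour at 4 °C to galactose-induced yeast display cells.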
As to “QVQLVESGGGLVQAGGSLRLSCAASGFTFRGNAMGWYRQAPGKERELVAAITSSGGRTYYADSVKGRFTISRDNAKNTVYLQMNSLKPVDTAVYYCAARYAYPSRYYYWGQGTQGTVSS”, the “polyreactivity (PSR sort gate)” value was “high polyreactivity”.
As to “QVQLVESGGGLVQAGGSLRLSCAASGFTFRGYAMGWYRPAPGTERELVAAITKRGGSTYYADSVKGRFTISRDNAKNTVYLQMNSLKPEDTAVYYCAKTRRFGRYNAYWYRTYGYDYWGQGSQVTVSS”, the “polyreactivity (PSR sort gate)” value is given as “high polyreactivity”.
“QVQLVESGGGLVQAGGSLRLSCAASGFTFRGYAMGWYRQAPGKERELVAAIRRGVGSTYYADSVKGRFTISRDNAKNTVYLQMTSLKPEDTAVYYCNKDNAVDRLPWFQVTYDYWGQGTQVTVSS”: the “polyreactivity (PSR sort gate)” value is recorded as “low polyreactivity”.
The entry for “QVQLVESGGGLVQAGGSLRLSCAASGFTFRGYAMGWYRQAPGKERELVAAISGSGGRTHYADSVKGRFTISRDNAKNTVYLQMNSLKPEDTAVYYCNAVPYSRPLGNNYWGQGTQVTVSS” is “high polyreactivity”; for “QVQLVESGGGLVQAGGSLRLSCAASGFTFRGYAMGWYRQAPGKERELVAAISRGGNTKYADSVKGRFTISRDNAKNTVYLQMNSLKPEDTAVYYCASYYFSSSHRYGYWGQGTQVTVSS” it is “high polyreactivity”; for “QVQLVESGGGLVQAGGSLRLSCAASGFTFRINAMGWYRQAPGKERELVAAITWIGGSTYYADSVKGRFTISRDNAKNTVYLQMNSLKPEDTALYYCAADVYNRWWWRAYDYWGQGTQVTVSS” it is “high polyreactivity”.
For “QVQLVESGGGLVQAGGSLRLSCAASGFTFRKYAMGWYRQAPGKERELVAANTSGGGSTYYADSVKGRFTISRDNAKNTVYLQMNSLKPEDTAVYYCAAKRSGGQGQGYGYWGQGTQVTVSS” the value was “high polyreactivity”.
The entry for “QVQLVESGGGLVQAGGSLRLSCAASGFTFRKYTMGWYRQAPGKERELVAAITNSGTSTYYADSVKGRFTISRDNAKNTVYLQMNSLKPEDTAVYYCARDNEPDYYSYPYDYWGQGTQVTVSS” is “low polyreactivity”; for “QVQLVESGGGLVQAGGSLRLSCAASGFTFRLNAMGWYRQAPGPERELVAAITRSGGNTYYADSVKGRFTIPRDNAKNTVYLQMNSLKPEDTAVYYCAARYFYWFRPTEYYYWGQGTQLTVSS” it is “high polyreactivity”; for “QVQLVESGGGLVQAGGSLRLSCAASGFTFRLYAMGWYRQAPGKERELVAAISWGGGSTYYADSVKGRFTISRDNAKNTLYLQMNSLKPEDTAVYYCAAYKYGYRYYYWGQGTLVTVSS” it is “high polyreactivity”.
Take “QVQLVESGGGLVQAGGSLRLSCAASGFTFRLYTMGWYRQAPGKERELVAGISTSGGSTYYADSVKGRFTISRDNAKNTVYLQMNSLKPEDTAVYYCAAQAFTSYDYWGQGTQVTVSS”: the “polyreactivity (PSR sort gate)” value is “high polyreactivity”.
The entry for “QVQLVESGGGLVQAGGSLRLSCAASGFTFRPNAMGWYRPAPAKERELVAAISGSGGSTYYADSVKGRFTISRDNAKNTVYLQMNSLKPEDTAVYYFAADSYYDGDYWGQGTQVTVSS” is “low polyreactivity”.
The entry for “QVQLVESGGGLVQAGGSLRLSCAASGFTFRQYAMGWYRQAPGKERELVAAISRSGSRTYYADSVKGRFTISRDNAKNTVYLQMNSLKPEDTAVYYCNAVFSTITGEYYWGQGTQVTVSS” is “high polyreactivity”.
The entry for “QVQLVESGGGLVQAGGSLRLSCAASGFTFRRNAMGWYRQAPGKEMELVASISSRGGITYYADSVKGRFTISRDNAKNTVYLQMNSLNPEDTAVYYCAVRFSRYTSNWRQSYDYWGQGTQVTVSS” is “low polyreactivity”; for “QVQLVESGGGLVQAGGSLRLSCAASGFTFRRNTMGWYRQEPGKERELVAAITQRGGSTYYADSVKGRFTISRDNAKNTVYLQMNSLKPEDTAVYYCAVDRHSYIYKYDYWGQGTQVTVSS” it is “high polyreactivity”.
With “QVQLVESGGGLVQAGGSLRLSCAASGFTFRRYAMGWYRQAAGKERELVASNSWRGGTTYYADSVKGRFTISRDNAKNTVYLQMNSLKPDDTAVYYCARGAATPPGYYSSGQGTQVTVSS”, the “polyreactivity (PSR sort gate)” value is listed as “low polyreactivity”.
For “QVQLVESGGGLVQAGGSLRLSCAASGFTFRRYAMGWYRQAPGKERELVAAISIRGGRTYYADSVKGRFTISRDNAKNTVYLQMNSLKPEVTAVYYCAAAPVGYGKRFYYWGQGTQVTVSS” the value was “high polyreactivity”; for “QVQLVESGGGLVQAGGSLRLSCAASGFTFRRYAMGWYRQAPGKERELVAAITRNGGSTYYADSVKGRFTISRDNAKNTVYLQMNRLKPEDTAVYYCNAVLYTPVYDGFDSWGQGTQVTVSS”, “high polyreactivity”; for “QVQLVESGGGLVQAGGSLRLSCAASGFTFRRYTMGWYRQARGKERELVAGITTSGGTYYADSVKGRFTISRDNAKNTVYLQMNSLKPEDTAVYYCAARIYYLYGMDYWGQGTQVTVSS”, “low polyreactivity”.
“QVQLVESGGGLVQAGGSLRLSCAASGFTFRRYVMGWYRQAPGKERELVAAISQRGGSTYYADSVKGRFTISRDNAKNTVYLQMNSLKPEDTAVYYCNIDYAGELDYWGQGTQVTVSS”: the “polyreactivity (PSR sort gate)” value is listed as “high polyreactivity”.
For “QVQLVESGGGLVQAGGSLRLSCAASGFTFRRYVMGWYRQAPGKERELVAAISQSGGSTYYADSVKGRFTISRDNAKNTVYLQMNSLKPEDTAVYYCAAAKVPYGWEQSDYWGQGTQVTVSS” the value was “high polyreactivity”.
For “QVQLVESGGGLVQAGGSLRLSCAASGFTFRRYVMGWYRQAPGKERELVAAISQSGGSTYYADSVKGRFTISRDNAKNTVYLQMYSLKPEDTAVYYCAAVTSRYVLSTFYYWGQGTQVTVSS”, the “polyreactivity (PSR sort gate)” value is “high polyreactivity”.
The entry for “QVQLVESGGGLVQAGGSLRLSCAASGFTFRRYVMGWYRQAPGKERELVAAISQSGGSTYYADSVKGRFTISRDNAMNTVYLQMNSLKPEDTAVYYCAAAKVPYGWAQSDYWGQGTQVTVSS” is “high polyreactivity”; for “QVQLVESGGGLVQAGGSLRLSCAASGFTFRSNAMGWYRQAPGKERELVAAISSNGGRTYYADSVKGRFTISRDNAKNTVYLQMNSLKPEDTAVYYCAARGGYSQKRHDSWGQGTQVTVSS” it is “high polyreactivity”; for “QVQLVESGGGLVQAGGSLRLSCAASGFTFRSNMGWYRQAPGKEREFVAAITKSGGSTYYADSVKGRFTISRDNAKNTVYLQMNSLKPEDTAVYYCAARARYTTGYRIIYDYWGQGSQVTVSS” it is “high polyreactivity”.
For “QVQLVESGGGLVQAGGSLRLSCAASGFTFRSYAMGWYRQAPGKERELVAAISSTGRTYYADSVKGRFTISRDNAKNTVYLQMNSLKPEDTAVYYCARNIPVSYYRYGYWGQGTQVTVSS” the value was “high polyreactivity”.
The entry for “QVQLVESGGGLVQAGGSLRLSCAASGFTFRSYTMGWYIQAPGKERELVATITWNGGSTYYADSVKGRFTISRDNAKNTVYLQMNSLKPEDTAVYYCAADPPWNFWNYYRMDYWGQGTQVTVSS” is “low polyreactivity”; for “QVQLVESGGGLVQAGGSLRLSCAASGFTFRVNAMGWYRQAPGKERELVAAISSGGSTNYADSVKGRFTISRDNAKNTVYLQMNSLNPEDNAVYYCAKRFKYIYYWGQGTQVTVSS” it is “high polyreactivity”.
Consider “QVQLVESGGGLVQAGGSLRLSCAASGFTFRVNAMGWYRQAPGKERELVAVISHSGGSTYYADSVKGRFTISRDNAKNTVYLQMNSLKPEDTAVYYCAKDRVVLYKYYRVDYWGQGTQVTVSS”, for which the “polyreactivity (PSR sort gate)” value was “low polyreactivity”.
The entry for “QVQLVESGGGLVQAGGSLRLSCAASGFTFRVYAMGWYRQAPGKERELVAAITKRGGSTYYADSVKGRFTISRDNAKNTVYLQMNSLKPEDTAVYYCATENTPHYASHGYWGQGTQVTVSS” is “high polyreactivity”.
